Test results taken from article PMC2918618, “Characterization of the TnsD-attTn7 complex that promotes site-specific insertion of Tn7” (Mobile DNA, 2010).

Experiments:
Assay in all cases: EMSA; Gel-shift buffer not given (as described in ref. 6); TnsD stored in 500 mM KCl, 50 mM Tris-HCl pH 8.0, 1 mM EDTA, 2 mM DTT, 25% glycerol
Details in all cases: protein: recombinant
TnsD 1-399 = target: T1, TnsD 1-399 (Escherichia coli (transposon Tn7), UniProt P13991 1-399)
T1 sequence: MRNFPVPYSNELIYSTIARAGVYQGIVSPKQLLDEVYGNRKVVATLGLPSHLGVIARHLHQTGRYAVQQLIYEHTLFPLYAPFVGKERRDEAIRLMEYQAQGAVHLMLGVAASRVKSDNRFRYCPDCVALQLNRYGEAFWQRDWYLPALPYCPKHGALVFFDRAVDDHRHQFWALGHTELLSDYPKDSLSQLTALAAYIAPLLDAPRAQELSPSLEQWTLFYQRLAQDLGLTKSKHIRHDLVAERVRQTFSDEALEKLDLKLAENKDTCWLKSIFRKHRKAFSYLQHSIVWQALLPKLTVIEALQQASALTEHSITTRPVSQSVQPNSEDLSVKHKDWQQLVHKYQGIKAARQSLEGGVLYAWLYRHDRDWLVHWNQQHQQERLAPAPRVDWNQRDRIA

TnsD 1-498 = target: T2, TnsD 1-498 (Escherichia coli (transposon Tn7), UniProt P13991 1-498)
T2 sequence: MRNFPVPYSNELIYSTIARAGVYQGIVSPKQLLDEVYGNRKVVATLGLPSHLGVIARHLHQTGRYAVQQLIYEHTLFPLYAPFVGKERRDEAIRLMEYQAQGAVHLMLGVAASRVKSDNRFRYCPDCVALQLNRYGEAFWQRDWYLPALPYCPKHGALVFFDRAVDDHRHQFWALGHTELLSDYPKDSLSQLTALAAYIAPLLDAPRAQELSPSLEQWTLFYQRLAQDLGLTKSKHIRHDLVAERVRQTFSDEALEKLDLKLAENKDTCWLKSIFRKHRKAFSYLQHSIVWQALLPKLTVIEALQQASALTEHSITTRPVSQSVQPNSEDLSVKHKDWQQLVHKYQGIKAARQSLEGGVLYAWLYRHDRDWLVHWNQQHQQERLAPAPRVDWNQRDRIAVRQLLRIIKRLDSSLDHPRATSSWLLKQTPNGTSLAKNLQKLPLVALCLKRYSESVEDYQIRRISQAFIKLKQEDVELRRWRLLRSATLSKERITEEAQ

TnsD 1-480 = target: T3, TnsD 1-480 (Escherichia coli (transposon Tn7), UniProt P13991 1-480)
T3 sequence: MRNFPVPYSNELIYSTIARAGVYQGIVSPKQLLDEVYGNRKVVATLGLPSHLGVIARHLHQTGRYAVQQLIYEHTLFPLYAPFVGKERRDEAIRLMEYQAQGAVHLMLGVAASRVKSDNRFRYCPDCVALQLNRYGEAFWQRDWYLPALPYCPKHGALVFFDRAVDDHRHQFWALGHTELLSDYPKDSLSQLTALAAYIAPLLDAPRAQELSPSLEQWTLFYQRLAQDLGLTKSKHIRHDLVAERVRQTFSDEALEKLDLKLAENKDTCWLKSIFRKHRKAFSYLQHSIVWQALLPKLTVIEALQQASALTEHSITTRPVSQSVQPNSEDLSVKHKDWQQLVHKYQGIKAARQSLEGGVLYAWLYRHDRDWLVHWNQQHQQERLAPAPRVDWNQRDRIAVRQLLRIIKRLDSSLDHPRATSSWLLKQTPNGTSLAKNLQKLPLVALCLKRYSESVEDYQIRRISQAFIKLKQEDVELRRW

TnsD 1-490 = target: T4, TnsD 1-490 (Escherichia coli (transposon Tn7), UniProt P13991 1-490)
T4 sequence: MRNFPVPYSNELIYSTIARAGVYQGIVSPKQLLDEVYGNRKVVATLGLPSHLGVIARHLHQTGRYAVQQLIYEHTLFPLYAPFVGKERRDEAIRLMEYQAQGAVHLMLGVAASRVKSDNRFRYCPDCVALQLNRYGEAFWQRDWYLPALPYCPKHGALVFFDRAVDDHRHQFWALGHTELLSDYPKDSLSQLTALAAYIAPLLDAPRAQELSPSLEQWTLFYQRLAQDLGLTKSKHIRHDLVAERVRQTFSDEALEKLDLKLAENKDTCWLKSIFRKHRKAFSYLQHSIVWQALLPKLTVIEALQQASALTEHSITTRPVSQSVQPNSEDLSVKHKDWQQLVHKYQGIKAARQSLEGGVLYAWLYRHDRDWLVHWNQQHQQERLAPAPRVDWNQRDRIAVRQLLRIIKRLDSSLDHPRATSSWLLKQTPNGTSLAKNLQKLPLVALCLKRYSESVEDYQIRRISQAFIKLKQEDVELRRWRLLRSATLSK

TnsD 1-350 = target: T5, TnsD 1-350 (Escherichia coli (transposon Tn7), UniProt P13991 1-350)
T5 sequence: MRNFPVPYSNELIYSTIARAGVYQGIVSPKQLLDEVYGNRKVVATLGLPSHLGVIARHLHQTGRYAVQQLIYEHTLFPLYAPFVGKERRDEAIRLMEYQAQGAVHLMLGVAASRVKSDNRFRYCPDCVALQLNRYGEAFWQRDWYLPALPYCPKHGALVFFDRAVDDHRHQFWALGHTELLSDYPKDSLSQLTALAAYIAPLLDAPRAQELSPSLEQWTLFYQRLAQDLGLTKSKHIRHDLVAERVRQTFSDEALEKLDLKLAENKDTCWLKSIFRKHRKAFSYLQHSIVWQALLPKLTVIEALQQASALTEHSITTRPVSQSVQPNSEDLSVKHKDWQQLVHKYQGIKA

Measured: binding result

B1: attTn7 wt (+23 to +58) (dsDNA)
DNA 1: CCGCGTAACCTGGCAAAATCGGTTACGGTTGAGTAA
DNA 2: TTACTCAACCGTAACCGATTTTGCCAGGTTACGCGG
no binding: all assays above
